Source: paper PMC6443348, “Protein denaturation at the air-water interface and how to prevent it” (eLife, 2019)

Target: T1, fatty acid synthase (FAS) from Saccharomyces cerevisiae, beta subunit (forms the beta-domes) (Saccharomyces cerevisiae, UniProt P07149 1-2051)
T1 construct: Fatty acid synthase subunit beta, Saccharomyces cerevisiae; also called yeast FAS
Experiment: cryo-EM structure; single-particle cryo-EM of purified FAS complex (0.2 mg/ml) on hydrophilized graphene grids; maps at 4.8 Å (C1) and 4.0 Å (D3 symmetry)
Settings: both partners purified

T1 sequence (P07149 whole entry): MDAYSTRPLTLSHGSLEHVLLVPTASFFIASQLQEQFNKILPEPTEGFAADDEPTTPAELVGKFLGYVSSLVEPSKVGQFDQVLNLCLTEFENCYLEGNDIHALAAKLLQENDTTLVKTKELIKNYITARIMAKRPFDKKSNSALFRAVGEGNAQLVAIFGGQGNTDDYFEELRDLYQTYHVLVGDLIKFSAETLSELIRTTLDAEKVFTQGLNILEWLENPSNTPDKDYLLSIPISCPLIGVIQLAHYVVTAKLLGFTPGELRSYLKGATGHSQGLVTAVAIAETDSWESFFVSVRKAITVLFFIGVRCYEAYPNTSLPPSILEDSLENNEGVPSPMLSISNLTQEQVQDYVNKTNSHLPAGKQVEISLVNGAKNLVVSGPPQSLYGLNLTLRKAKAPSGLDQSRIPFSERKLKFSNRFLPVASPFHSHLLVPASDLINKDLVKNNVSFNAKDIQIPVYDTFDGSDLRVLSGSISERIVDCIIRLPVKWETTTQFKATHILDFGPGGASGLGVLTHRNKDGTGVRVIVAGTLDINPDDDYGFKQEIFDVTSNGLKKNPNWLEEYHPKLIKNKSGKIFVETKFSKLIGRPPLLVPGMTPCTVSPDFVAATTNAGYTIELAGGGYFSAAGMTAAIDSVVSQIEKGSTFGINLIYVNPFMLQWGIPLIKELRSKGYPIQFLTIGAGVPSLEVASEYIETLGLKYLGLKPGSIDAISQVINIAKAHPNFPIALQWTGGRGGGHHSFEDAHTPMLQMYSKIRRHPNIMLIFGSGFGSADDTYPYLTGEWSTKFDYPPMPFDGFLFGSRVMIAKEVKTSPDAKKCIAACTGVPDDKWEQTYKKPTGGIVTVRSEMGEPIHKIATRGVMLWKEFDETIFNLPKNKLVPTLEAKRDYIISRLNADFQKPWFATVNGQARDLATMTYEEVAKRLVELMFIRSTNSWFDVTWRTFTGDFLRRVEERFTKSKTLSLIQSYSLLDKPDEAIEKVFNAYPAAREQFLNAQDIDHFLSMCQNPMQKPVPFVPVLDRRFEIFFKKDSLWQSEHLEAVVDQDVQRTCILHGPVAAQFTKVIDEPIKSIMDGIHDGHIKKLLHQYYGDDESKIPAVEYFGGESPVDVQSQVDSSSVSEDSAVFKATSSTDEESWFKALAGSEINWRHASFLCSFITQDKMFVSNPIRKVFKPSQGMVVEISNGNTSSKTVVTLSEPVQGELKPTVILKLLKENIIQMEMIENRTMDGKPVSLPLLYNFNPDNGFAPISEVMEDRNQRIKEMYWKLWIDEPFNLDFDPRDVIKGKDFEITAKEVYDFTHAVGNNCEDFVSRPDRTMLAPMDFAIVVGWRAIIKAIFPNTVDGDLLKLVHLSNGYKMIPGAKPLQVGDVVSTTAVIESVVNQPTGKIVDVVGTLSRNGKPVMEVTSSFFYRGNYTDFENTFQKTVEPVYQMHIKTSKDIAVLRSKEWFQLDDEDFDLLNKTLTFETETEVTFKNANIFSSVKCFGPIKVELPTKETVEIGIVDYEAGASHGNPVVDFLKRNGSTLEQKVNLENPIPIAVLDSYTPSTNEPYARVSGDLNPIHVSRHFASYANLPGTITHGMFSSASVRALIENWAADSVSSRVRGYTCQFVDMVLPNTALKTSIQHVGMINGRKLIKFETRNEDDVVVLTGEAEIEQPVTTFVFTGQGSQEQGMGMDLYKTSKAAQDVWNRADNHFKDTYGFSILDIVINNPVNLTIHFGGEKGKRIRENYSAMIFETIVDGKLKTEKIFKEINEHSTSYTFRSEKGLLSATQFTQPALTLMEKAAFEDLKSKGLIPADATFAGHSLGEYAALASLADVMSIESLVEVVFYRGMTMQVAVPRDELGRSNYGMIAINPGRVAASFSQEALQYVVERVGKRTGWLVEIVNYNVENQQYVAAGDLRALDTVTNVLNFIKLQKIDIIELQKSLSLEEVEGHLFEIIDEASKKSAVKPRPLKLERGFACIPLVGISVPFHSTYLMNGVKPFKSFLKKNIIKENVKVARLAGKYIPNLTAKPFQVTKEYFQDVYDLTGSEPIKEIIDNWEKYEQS

- binding result: binds
B1: fatty acid synthase (FAS) from Saccharomyces cerevisiae, alpha subunit (forms the alpha wheel) (natural protein, UniProt P19097 1-1887, looked up)
chain: MKPEVEQELAHILLTELLAYQFASPVRWIETQDVFLKDFNTERVVEIGPSPTLAGMAQRTLKNKYESYDAALSLHREILCYSKDAKEIYYTPDPSELAAKEEPAKEEAPAPTPAASAPAPAAAAPAPVAAAAPAAAAAEIADEPVKASLLLHVLVAHKLKKSLDSIPMSKTIKDLVGGKSTVQNEILGDLGKEFGTTPEKPEETPLEELAETFQDTFSGALGKQSSSLLSRLISSKMPGGFTITVARKYLQTRWGLPSGRQDGVLLVALSNEPAARLGSEADAKAFLDSMAQKYASIVGVDLSSAASASGAAGAGAAAGAAMIDAGALEEITKDHKVLARQQLQVLARYLKMDLDNGERKFLKEKDTVAELQAQLDYLNAELGEFFVNGVATSFSRKKARTFDSSWNWAKQSLLSLYFEIIHGVLKNVDREVVSEAINIMNRSNDALIKFMEYHISNTDETKGENYQLVKTLGEQLIENCKQVLDVDPVYKDVAKPTGPKTAIDKNGNITYSEEPREKVRKLSQYVQEMALGGPITKESQPTIEEDLTRVYKAISAQADKQDISSSTRVEFEKLYSDLMKFLESSKEIDPSQTTQLAGMDVEDALDKDSTKEVASLPNKSTISKTVSSTIPRETIPFLHLRKKTPAGDWKYDRQLSSLFLDGLEKAAFNGVTFKDKYVLITGAGKGSIGAEVLQGLLQGGAKVVVTTSRFSKQVTDYYQSIYAKYGAKGSTLIVVPFNQGSKQDVEALIEFIYDTEKNGGLGWDLDAIIPFAAIPEQGIELEHIDSKSEFAHRIMLTNILRMMGCVKKQKSARGIETRPAQVILPMSPNHGTFGGDGMYSESKLSLETLFNRWHSESWANQLTVCGAIIGWTRGTGLMSANNIIAEGIEKMGVRTFSQKEMAFNLLGLLTPEVVELCQKSPVMADLNGGLQFVPELKEFTAKLRKELVETSEVRKAVSIETALEHKVVNGNSADAAYAQVEIQPRANIQLDFPELKPYKQVKQIAPAELEGLLDLERVIVVTGFAEVGPWGSARTRWEMEAFGEFSLEGCVEMAWIMGFISYHNGNLKGRPYTGWVDSKTKEPVDDKDVKAKYETSILEHSGIRLIEPELFNGYNPEKKEMIQEVIVEEDLEPFEASKETAEQFKHQHGDKVDIFEIPETGEYSVKLLKGATLYIPKALRFDRLVAGQIPTGWNAKTYGISDDIISQVDPITLFVLVSVVEAFIASGITDPYEMYKYVHVSEVGNCSGSGMGGVSALRGMFKDRFKDEPVQNDILQESFINTMSAWVNMLLISSSGPIKTPVGACATSVESVDIGVETILSGKARICIVGGYDDFQEEGSFEFGNMKATSNTLEEFEHGRTPAEMSRPATTTRNGFMEAQGAGIQIIMQADLALKMGVPIYGIVAMAATATDKIGRSVPAPGKGILTTAREHHSSVKYASPNLNMKYRKRQLVTREAQIKDWVENELEALKLEAEEIPSEDQNEFLLERTREIHNEAESQLRAAQQQWGNDFYKRDPRIAPLRGALATYGLTIDDLGVASFHGTSTKANDKNESATINEMMKHLGRSEGNPVIGVFQKFLTGHPKGAAGAWMMNGALQILNSGIIPGNRNADNVDKILEQFEYVLYPSKTLKTDGVRAVSITSFGFGQKGGQAIVVHPDYLYGAITEDRYNEYVAKVSAREKSAYKFFHNGMIYNKLFVSKEHAPYTDELEEDVYLDPLARVSKDKKSGSLTFNSKNIQSKDSYINANTIETAKMIENMTKEKVSNGGVGVDVELITSINVENDTFIERNFTPQEIEYCSAQPSVQSSFAGTWSAKEAVFKSLGVKSLGGGAALKDIEIVRVNKNAPAVELHGNAKKAAEEAGVTDVKVSISHDDLQAVAVAVSTKK
notes: Fatty acid synthase subunit alpha, Saccharomyces cerevisiae; also called yeast FAS
